System: MBP5-TEV-paramyosin ΔSal (maltose binding protein domain and a paramyosin fragment linked by a TEV protease recognition sequence)

commercially available TEV protease (New England Biolabs, Inc. Catalog #P8112S)
cleavage of the substrate, 4° C., 1 hour: the commercially available enzyme only produced 62% cleavage in the same time | cleavage of the substrate, 4° C., 3 hours: the commercial enzyme cleaved only 76% and 83% of the substrate at these times, respectively | cleavage of the substrate, 4° C., 5 hours: the commercial enzyme cleaved only 76% and 83% of the substrate at these times, respectively

— patent publication US20260234592
